Test results from patent US9856300B2, “Dpy-30 binding peptides and methods of use” (Marquette University, priority 2011, dated 2018).
No end group written: not given here.

Assays:
Dpy-30 [1] = molecular target: T1, Dpy-30 (Homo sapiens, UniProt Q9C005); assay: Ni-NTA pulldown of GST-tagged RSP3 peptides with His-tagged human Dpy-30 protein; type: binding; set-up: made in house; host or cells: E. coli BL21(DE3), co-expressed with the GST-RSP3 peptides; settings: full-length human His-Dpy-30 co-expressed with GST-RSP3 peptide
Text: (§1) Based on the phenotypes of RSP3 transgenic strains (FIG. 4), an in vitro approach was taken to test that RSP3269-316 contains a Dpy-30 domain binding site. RIIa-binding AHs are 14-18-a.a. long. Some of AHs are clearly comprised of ΦΦXX repeats in which the first two residues are hydrophobic residues (Φ) positioned to interact with complementary residues at the binding grooves of the RIIa domain (Burns-Hamuro et al., 2003; Kinderman et al., 2006; Sarma et al., 2010), whereas for the other RIIa-binding AHs the repeats are not as evident (Gold et al., 2006; Gaillard et al., 2001). Typical ΦΦXX repeats were noted within the Dpy-30 binding fragment in BIG1 at the trans-Golgi network but were not tested yet (Xia et al., 2010). For RSP3269-316, typical and degenerate ΦΦXX repeats are present throughout this region, thus the precise Dpy-30 binding site was determined objectively by Ni-NTA pulldown. As a control, the His-tagged RIIa domain from RSP7 was co-expressed with the GST-tagged RSP396-180 that harbors AHR at a.a.#161-178 (Gaillard et al., 2001; FIG. 3) and both polypeptides were co-purified by Ni-NTA (FIG. 7A). Various Dpy-30 domain containing RSP2 and RSP23 polypeptides were tested but were not compatible for this assay due to poor expression or precipitation propensity. Therefore we used the His-tagged human Dpy-30 protein for Ni-NTA pulldown instead. As expected, both GST-RSP3245-316 and GST-RSP3269-316 were co-purified with His-Dpy-30 by Ni-NTA (FIGS. 7B and 7C). In contrast, the GST control was not co-purified (FIG. 7D).
The experiments were further conducted on smaller segments within a.a.#269-316. GST-RSP3280-316 and GST-RSP3280-308, but not GST-RSP3280-306, were also pulled down by His-Dpy-30 (FIG. 7E, left panel). […] To ensure that the co-purification occurs through the Dpy-30 domain rather than its flanking sequence, the same experiment was conducted with the Dpy-30 domain only (Dpy-3045-99, Wang et al., 2009). The results from the experiments using Dpy-30 domain alone or full-length Dpy-30 protein were similar (FIG. 7E, right panel). Based on the similar dimensions of the RIIa and Dpy-30 domains (FIG. 1), we tested if the Dpy-30 binding peptide is centered on the 18-a.a. helix at the a.a.#291-308 by mutating V300 in the middle of the region into P, a strategy used to study AHR (Gaillard et al., 2001; Carr et al., 1992). […] RSP3291-308.
For Ni-NTA (Qiagen) affinity co-purification, GST-tagged RSP3 constructs and His-tagged HDpy-30 constructs were co-transformed into BL21(DE3) cells. The recombinant proteins were induced using 1 mM IPTG overnight at 16° C. Following induction, the cell pellet from a 5-ml culture was resuspended in 750 μl lysis buffer and sonicated using Branson digital Sonifier (Emerson Industrial Automation). The sonicated mixtures were centrifuged at 4° C., 12,000 rpm for 25 min. The supernatant was incubated with 100 μl Ni-NTA for 1 hour at room temperature. The matrix was subsequently washed thrice and elution was carried out as instructed by the manufacturer.

RIIa domain from RSP7 = assay: Ni-NTA pulldown with His-tagged RIIa domain from RSP7; type: binding, Chlamydomonas; settings: co-expressed in bacteria
Text: as §1
Based on the structural similarity, we tested for the cross-recognition of His-Dpy-30 and AHR (GST-RSP3g); and RSP7's RIIa and AHD (GST-RSP3280-308) by the described Ni-NTA pulldown assay. […] Thus Dpy-30 that has a deep pocket from an additional α-helix recognizes both AHR and AHD, whereas RSP7's RIIa, as PKA's RII, only binds RSP3's AHR(Gaillard et al., 2001). […]

Dpy-30 D/D (a.a. #49-99) = molecular target: T2, Dpy-30 D/D (a.a. #49-99) (Homo sapiens, UniProt Q9C005); assay: Ni-NTA pulldown of GST-hAsh2 peptides with His-Dpy-30 D/D; type: binding; settings: His-Dpy-30 D/D a.a. #49-99 co-expressed
T2 construct: His-Dpy-30 D/D (a.a. #49-99) was co-expressed with GST-hAsh2593-623; made in house; host or cells: E. coli BL21(DE3)
Text: To differentiate if the interaction is via the Dpy-30 domain or the N-terminal fragment, His-Dpy-30 D/D (a.a. #49-99) was co-expressed with GST-hAsh2593-623 (FIG. 11C). To define the N-terminal end of Dpy-30 D/D binding site in hAsh2, W599 in the first potential ΦΦXX motif was mutated into P to disrupt helicity, an approach to abolish D/D-binding (Carr et al., 1982; Burns-Hamuro et al., 2003). […] Thus, the site that directly binds Dpy-30 D/D resides within hAsh2600-617 that is after W599 and contains four ΦΦXX-like motifs, even though an acidic residue occupies a supposedly hydrophobic position in the last motif, VETE (SEQ ID NO:35). The affinity may be further enhanced by adjacent sequences (Burns-Hamuro et al., 2003; Banky et al., 2003).
(§2) All expression constructs were transformed or co-transformed into BL21(DE3) cells. The colonies were selected based on the antibiotic-resistant gene in each plasmid. The cultures were induced with 1 mM IPTG overnight at 18° C. The cell pellet from a 5-ml culture was resuspended in 750-μl lysis buffer supplemented with Complete Mini EDTA-free protease inhibitor cocktail tablets (Roche) and the suspension was sonicated on ice using Branson digital Sonifier until clarified (Emerson Industrial Automation). The sonicated mixtures were centrifuged at 4° C., 12,000 rpm for 25 min. The supernatant or combinations of supernatants as indicated were incubated with ˜100 μl Ni-NTA (Qiagen or Clontech) or Glutathione Sepharose 4B (Amersham Biosciences) for 1 hour at room temperature. The matrix was subsequently washed as instructed by manufacturers, unless indicated otherwise.
(§3) Bacterial extract, flow through and eluate in 1× Laemmli samples buffer were boiled for 5 min. In general, 10 μl samples were loaded in each lane in 4-20% precast acrylamide gels (Bio-Rad or DGEL Electrosystem, Canada) or 14% manually cast gels.

Dpy-30 [2] = molecular target: T1, Dpy-30; assay: Ni-NTA pulldown of GST-hAsh2 peptides with His-Dpy-30; type: binding; set-up: Dpy-30 fragments, full length or a.a.#49-99, were amplified using purchased IMAGE cDNA clone #4081996 as a template; made in house; host or cells: E. coli BL21(DE3); key to co-purified with Dpy-30: “+” or “−” indicates if the peptides were or were not evidently co-purified with Dpy-30; “+” or “−” indicates if the peptides were or were not evidently co-purified with Dpy-30; settings: GST-fused hAsh2 peptides, Ni-NTA pulldown, Coomassie-stained SDS-PAGE
Text: To test this, we performed pull down assays for His-Dpy-30 and GST-hAsh2593-623. The human Ash2 fragment contains a helix with two typical and three atypical ΦΦXX motifs. The hAsh2 DNA was fused downstream to GST DNA by PCR and the product was cloned into an expression vector. Three clones—#9 and #14 with the expected in-frame fusion and #6 with an out-of-frame fusion—were expressed in bacteria. Their extract was mixed with equal volume of bacterial extract with His-Dpy-30; and the mixture was subjected to Ni-NTA purification. […] Thus hAsh2593-623 interacts with Dpy-30 specifically.
Table 3 illustrates the protein sequences of hAsh2's C-terminal region (hAsh2593-623) and its variants, where “+” or “−” indicates if the peptides were or were not evidently co-purified with Dpy-30. The shorter fusion protein GST-hAsh2593-617 that terminated right after the last possible ΦΦXX-like motif, VETE (SEQ ID NO:35), in the helix was also co-purified with His-Dpy-30 (FIG. 11B, arrow and double arrowheads), no matter expressed separately or co-expressed. Both polypeptides were depleted in the flow through of Ni-NTA matrix (Post in FIG. 11B) and retained in the eluate.
as §2, §3

T1 sequence (Q9C005 whole entry, the tested form may be a part): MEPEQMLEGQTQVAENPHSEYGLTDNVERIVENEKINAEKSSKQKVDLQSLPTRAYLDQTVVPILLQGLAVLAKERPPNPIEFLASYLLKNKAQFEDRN
T2 sequence (Q9C005 49-99): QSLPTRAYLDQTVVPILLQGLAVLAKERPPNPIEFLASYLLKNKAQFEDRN

co-purification / pulldown with His-Dpy-30 (Dpy-30 [1])	co-purification with the Dpy-30 domain (Dpy-30 D/D (a.a. #49-99))	co-purified with Dpy-30 (Dpy-30 [2])	Substance	co-purification / pulldown with His-RIIa from RSP7 (RIIa domain from RSP7)
	abolished the co-purification	−	PMSDMGWGAVVEHTLAD----------GRRS (PMSDMGWGAVVEHTLADGRRS; also: GST fusion) [Δ610-619, GST-hAsh2593-623 with a.a. #610-619 deleted]	
pulled down			GST-RSP3280-316: GST-tagged Chlamydomonas RSP3 fragment a.a. 280-316 (PWLKEQAIGYLARGVVARRVVDKLVEDAAAALAANRS; also: GST tag)	
	abolished the co-purification	−	PMSDMGWGAVVEHTLADVLYH------GRRS (PMSDMGWGAVVEHTLADVLYHGRRS; also: GST fusion) [Δ614-619, GST-hAsh2593-623 with VETEVD deleted]	
not			GST-RSP3280-306: GST-tagged Chlamydomonas RSP3 fragment a.a. 280-306 (PWLKEQAIGYLARGVVARRVVDKLVED; also: GST tag)	
	still co-purified	−	PMSDMGPGAVVEHTLADVLYHVETEVDGRRS [W500P]	

Substance	co-purification / pulldown with His-Dpy-30 (Dpy-30 [1])	co-purification with the Dpy-30 domain (Dpy-30 D/D (a.a. #49-99))	co-purified with Dpy-30 (Dpy-30 [2])	co-purification / pulldown with His-RIIa from RSP7 (RIIa domain from RSP7)
GST-RSP3280-308: GST-tagged RSP3 fragment a.a. 280-308, the Dpy-30-binding amphipathic helix AHD (PWLKEQAIGYLARGVVARRVVDKLVEDAA; also: GST-tagged (fusion))	pulled down			did not significantly pull down
